{"source": "patent US20190092852A1", "about": "(Genentech, published 2019)", "key": {"[1]": {"biological_target": "T1, cyno IL-33 (construct not stated) (cynomolgus monkey, UniProt A0A2K5W3I1 112-269)", "T1 construct": "also called cynomolgus IL-33; cyno IL-33 (Genentech)", "T1 sequence": "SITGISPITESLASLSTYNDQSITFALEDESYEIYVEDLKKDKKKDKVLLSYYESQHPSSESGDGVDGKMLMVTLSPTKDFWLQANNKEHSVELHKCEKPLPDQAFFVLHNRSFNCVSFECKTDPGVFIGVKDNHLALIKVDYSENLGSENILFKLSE", "assay": "SPR, BIACORE 3000, antibody captured on anti-human Fab, 25 C, 1:1 Langmuir model; lot 2", "experimental": "(§1) The binding kinetics of the bispecific antibody 10C12-IL13 KIH IgG4 to human IL-33, cyno IL-33, and human IL-13 was assessed using SPR on a BIACORE® 3000 (GE Healthcare). Anti-human Fab (GE Healthcare) was immobilized on a CM5 sensor chip via amine-based coupling according to the manufacturer's protocol. The bispecific antibody was captured and binding was measured to human IL-33 (Genentech), cyno IL-33 (Genentech), and human IL-13 (Peprotech). […] Sensograms for binding of cytokine were recorded using an injection time of 2 min with a flow rate of 30 μl/min, at a temperature of 25° C., and with a running buffer of 10 mM HEPES, pH 7.4, 150 mM NaCl, 3 mM EDTA, and 0.005% TWEEN®-20. After injection, disassociation of the ligand from the antibody was monitored for 600 sec in running buffer. The surface was regenerated between binding cycles with a 40 μl injection of 10 mM Glycine-HCl pH 2.1. After subtraction of a blank which contained running buffer only, sensograms observed for cytokine binding to the bispecific antibody were analyzed using a 1:1 Langmuir binding model with software supplied by the manufacturer to calculate the kinetics and binding constants, including the dissociation constant (KD)."}, "human IL-13 (Peprotech) [2]": {"biological_target": "T2, human IL-13 (Peprotech) (human, UniProt P35225 35-146)", "T2 sequence (P35225 35-146 limits assumed)": "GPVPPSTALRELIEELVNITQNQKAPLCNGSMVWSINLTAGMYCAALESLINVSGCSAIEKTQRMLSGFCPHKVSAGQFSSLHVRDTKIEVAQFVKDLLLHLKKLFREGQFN", "assay": "SPR, BIACORE 3000, antibody captured on anti-human Fab, 25 C, 1:1 Langmuir model; lot 2", "experimental": "as §1"}, "[3]": {"biological_target": "T3, human IL-33 (construct not stated) (human, UniProt O95760 112-270)", "T3 construct": "also called human IL-33 (Genentech); recombinant human IL33", "T3 sequence (looked up)": "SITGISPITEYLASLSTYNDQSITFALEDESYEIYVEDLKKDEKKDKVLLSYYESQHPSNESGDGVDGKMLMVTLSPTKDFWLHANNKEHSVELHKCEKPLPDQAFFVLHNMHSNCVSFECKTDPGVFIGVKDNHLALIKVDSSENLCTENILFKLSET", "assay": "SPR, BIACORE 3000, antibody captured on anti-human Fab, 25 C, 1:1 Langmuir model; lot 2", "experimental": "as §1"}, "[4]": {"biological_target": "T1, cyno IL-33 (construct not stated)", "assay": "SPR, BIACORE 3000, antibody captured on anti-human Fab, 25 C, 1:1 Langmuir model; lot 3", "experimental": "as §1"}, "human IL-13 (Peprotech) [5]": {"biological_target": "T2, human IL-13 (Peprotech)", "assay": "SPR, BIACORE 3000, antibody captured on anti-human Fab, 25 C, 1:1 Langmuir model; lot 3", "experimental": "as §1"}, "[6]": {"biological_target": "T3, human IL-33 (construct not stated)", "assay": "SPR, BIACORE 3000, antibody captured on anti-human Fab, 25 C, 1:1 Langmuir model; lot 3", "experimental": "as §1"}, "[7]": {"biological_target": "T1, cyno IL-33 (construct not stated)", "assay": "SPR, BIACORE 3000, antibody captured on anti-human Fab, 25 C, 1:1 Langmuir model; lot 1", "experimental": "as §1"}, "human IL-13 (Peprotech) [8]": {"biological_target": "T2, human IL-13 (Peprotech)", "assay": "SPR, BIACORE 3000, antibody captured on anti-human Fab, 25 C, 1:1 Langmuir model; lot 1", "experimental": "as §1"}, "[9]": {"biological_target": "T3, human IL-33 (construct not stated)", "assay": "SPR, BIACORE 3000, antibody captured on anti-human Fab, 25 C, 1:1 Langmuir model; lot 1", "experimental": "as §1"}, "[10]": {"biological_target": "T1, cyno IL-33 (construct not stated)", "assay": "SPR Biacore 3000, captured by anti-human Fab, 25 C, mean of three lots", "experimental": "(§2) The binding kinetics of the bispecific antibody 10C12-IL-13 KIH IgG4 to human IL-33, cyno IL-33, and human IL-13 was assessed using BIACORE® 3000 SPR (FIG. 20).\nas §1"}, "human IL-13 (Peprotech) [11]": {"biological_target": "T2, human IL-13 (Peprotech)", "assay": "SPR Biacore 3000, captured by anti-human Fab, 25 C, mean of three lots", "experimental": "as §2, §1"}, "[12]": {"biological_target": "T3, human IL-33 (construct not stated)", "assay": "SPR Biacore 3000, captured by anti-human Fab, 25 C, mean of three lots", "experimental": "as §2, §1"}, "human IL-33 N-His": {"biological_target": "T4, human IL-33 N-His (human)", "T4 chain": "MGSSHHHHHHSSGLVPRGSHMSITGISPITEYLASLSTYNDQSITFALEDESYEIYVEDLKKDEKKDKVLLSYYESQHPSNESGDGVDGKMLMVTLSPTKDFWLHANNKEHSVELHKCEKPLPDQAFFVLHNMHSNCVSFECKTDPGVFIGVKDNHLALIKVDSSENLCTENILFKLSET", "assay": "cell-based or functional assay"}, "[13]": {"biological_target": "T3, human IL-33 (construct not stated)", "assay": "cell-based or functional assay"}}, "data": [{"binder": "10C12.38.H6.87Y.58I/IL-13 IgG4 (bispecific antibody, Knob-in-hole human IgG4 made in E. coli: anti-IL-33 arm as hole, anti-IL-13 arm (lebrikizumab CDRs; Q1E heavy, M4L light) as knob; also called 10C12-IL-13 KIH IgG4; 10C12-IL13 KIH IgG4) heavy 1: EVQLVESGGGLVQPGGSLRLSCAASGFTFSSFSMSWVRQAPGKGLEWVATISGGKTFTDYVDSVKGRFTISRDDSKNTLYLQMNSLRAEDTAVYYCTRANYGNWFFEVWGQGTLVTVSSASTKGPSVFPLAPCSRSTSESTAALGCLVKDYFPEPVTVSWNSGALTSGVHTFPAVLQSSGLYSLSSVVTVPSSSLGTKTYTCNVDHKPSNTKVDKRVESKYGPPCPPCPAPEFLGGPSVFLFPPKPKDTLMISRTPEVTCVVVDVSQEDPEVQFNWYVDGVEVHNAKTKPREEQFNSTYRVVSVLTVLHQDWLNGKEYKCKVSNKGLPSSIEKTISKAKGQPREPQVYTLPPSQEEMTKNQVSLSCAVKGFYPSDIAVEWESNGQPENNYKTTPPVLDSDGSFFLVSRLTVDKSRWQEGNVFSCSVMHEALHNHYTQKSLSLSLG light 1: EIVLTQSPATLSLSPGERATLSCRASESVAKYGLSLLNWFQQKPGQPPRLLIFAASNRGSGIPARFSGSGSGTDFTLTISSLEPEDFAVYYCQQSKEVPFTFGQGTKVEIKRTVAAPSVFIFPPSDEQLKSGTASVVCLLNNFYPREAKVQWKVDNALQSGNSQESVTEQDSKDSTYSLSSTLTLSKADYEKHKVYACEVTHQGLSSPVTKSFNRGEC heavy 2: not shown light 2: DIVLTQSPDSLSVSLGERATINCRASKSVDSYGNSFMHWYQQKPGQPPKLLIYLASNLESGVPDRFSGSGSGTDFTLTISSLQAEDVAVYYCQQNNEDPRTFGGGTKVEIKRTVAAPSVFIFPPSDEQLKSGTASVVCLLNNFYPREAKVQWKVDNALQSGNSQESVTEQDSKDSTYSLSSTLTLSKADYEKHKVYACEVTHQGLSSPVTKSFNRGEC", "values": [{"measurement": "Kd", "setting": "[1]", "result": 0.062, "unit": "nM"}, {"measurement": "koff", "setting": "[1]", "result": "4e-05", "unit": "s⁻¹"}, {"measurement": "kon", "setting": "[1]", "result": 650000, "unit": "M⁻¹ s⁻¹"}, {"measurement": "Kd", "setting": "human IL-13 (Peprotech) [2]", "result": "< 0.01", "unit": "nM"}, {"measurement": "koff", "setting": "human IL-13 (Peprotech) [2]", "result": "4e-06", "unit": "s⁻¹"}, {"measurement": "kon", "setting": "human IL-13 (Peprotech) [2]", "result": "1.47e+06", "unit": "M⁻¹ s⁻¹"}, {"measurement": "Kd", "setting": "[3]", "result": 0.026, "unit": "nM"}, {"measurement": "koff", "setting": "[3]", "result": "3e-05", "unit": "s⁻¹"}, {"measurement": "kon", "setting": "[3]", "result": "1.14e+06", "unit": "M⁻¹ s⁻¹"}, {"measurement": "Kd", "setting": "[4]", "result": 0.059, "unit": "nM"}, {"measurement": "koff", "setting": "[4]", "result": "4.1e-05", "unit": "s⁻¹"}, {"measurement": "kon", "setting": "[4]", "result": 700000, "unit": "M⁻¹ s⁻¹"}, {"measurement": "Kd", "setting": "human IL-13 (Peprotech) [5]", "result": "< 0.01", "unit": "nM"}, {"measurement": "koff", "setting": "human IL-13 (Peprotech) [5]", "result": "6e-06", "unit": "s⁻¹"}, {"measurement": "kon", "setting": "human IL-13 (Peprotech) [5]", "result": "1.45e+06", "unit": "M⁻¹ s⁻¹"}, {"measurement": "Kd", "setting": "[6]", "result": 0.041, "unit": "nM"}, {"measurement": "koff", "setting": "[6]", "result": "4e-05", "unit": "s⁻¹"}, {"measurement": "kon", "setting": "[6]", "result": 990000, "unit": "M⁻¹ s⁻¹"}, {"measurement": "Kd", "setting": "[7]", "result": 0.107, "unit": "nM"}, {"measurement": "koff", "setting": "[7]", "result": "7.2e-05", "unit": "s⁻¹"}, {"measurement": "kon", "setting": "[7]", "result": 670000, "unit": "M⁻¹ s⁻¹"}, {"measurement": "Kd", "setting": "human IL-13 (Peprotech) [8]", "result": "< 0.01", "unit": "nM"}, {"measurement": "koff", "setting": "human IL-13 (Peprotech) [8]", "result": "2e-06", "unit": "s⁻¹"}, {"measurement": "kon", "setting": "human IL-13 (Peprotech) [8]", "result": "1.49e+06", "unit": "M⁻¹ s⁻¹"}, {"measurement": "Kd", "setting": "[9]", "result": 0.01, "unit": "nM"}, {"measurement": "koff", "setting": "[9]", "result": "1.1e-05", "unit": "s⁻¹"}, {"measurement": "kon", "setting": "[9]", "result": "1.1e+06", "unit": "M⁻¹ s⁻¹"}, {"measurement": "Kd", "setting": "[10]", "result": 0.076, "unit": "nM"}, {"measurement": "Kd", "setting": "human IL-13 (Peprotech) [11]", "result": "< 0.01", "unit": "nM"}, {"measurement": "Kd", "setting": "[12]", "result": 0.025, "unit": "nM"}, {"measurement": "IC50; SEAP reporter, HEK-BLUE IL-33 cells, 15 pM human IL-33 N-His, 20 h", "setting": "human IL-33 N-His", "result": 25.4, "unit": "pM"}, {"measurement": "IC50 (read off the curve); phospho-p38 MFI in CD123+ basophils (average from 2 donors), 10 ng/ml IL-33", "setting": "[13]", "result": "~0.5", "unit": "nM"}]}]}
